Reference: patent publication US20190361034A1
Each block holds one substance with its values, some of them ahead of it.

Assays:
[1] = molecular target: MHC class II molecules on MHC class II-expressing Raji cells (human); assay: transfer cell ELISA, Raji cells; 500 ng/ml; plate row C
[2] = molecular target: MHC class II molecules on MHC class II-expressing Raji cells (human); assay: transfer cell ELISA, Raji cells; 1000 ng/ml; plate row D
[3] = molecular target: MHC class II molecules on MHC class II-expressing Raji cells (human); assay: transfer cell ELISA, Raji cells; 0.977 ng/ml; plate row C
[4] = molecular target: MHC class II molecules on MHC class II-expressing Raji cells (human); assay: direct ELISA, plate-immobilised Raji cells; 5% BSA, 2,500 cells; 125 ng/ml
[5] = molecular target: MHC class II molecules on MHC class II-expressing Raji cells (human); assay: direct ELISA, plate-immobilised Raji cells; 5% BSA, 5,000 cells; 125 ng/ml
[6] = molecular target: MHC class II molecules on MHC class II-expressing Raji cells (human); assay: direct ELISA, plate-immobilised Raji cells; 10% FBS, 2,500 cells; 250 ng/ml
[7] = molecular target: MHC class II molecules on MHC class II-expressing Raji cells (human); assay: direct ELISA, plate-immobilised Raji cells; 10% FBS, 10,000 cells; 500 ng/ml
[8] = molecular target: MHC class II molecules on MHC class II-expressing Raji cells (human); assay: direct ELISA, plate-immobilised Raji cells; 10% FBS, 2,500 cells; 62.5 ng/ml
[9] = molecular target: MHC class II molecules on MHC class II-expressing Raji cells (human); assay: direct ELISA, plate-immobilised Raji cells; 5% BSA, 10,000 cells; 1000 ng/ml
[10] = molecular target: MHC class II molecules on MHC class II-expressing Raji cells (human); assay: direct ELISA, plate-immobilised Raji cells; 10% FBS, 2,500 cells; 31.25 ng/ml
[11] = molecular target: MHC class II molecules on MHC class II-expressing Raji cells (human); assay: transfer cell ELISA, Raji cells; 1000 ng/ml
[12] = molecular target: MHC class II molecules on MHC class II-expressing Raji cells (human); assay: transfer cell ELISA, Raji cells; 62.5 ng/ml
[13] = molecular target: MHC class II molecules on MHC class II-expressing Raji cells (human); assay: transfer cell ELISA, Raji cells; 15.63 ng/ml
[14] = molecular target: MHC class II molecules on MHC class II-expressing Raji cells (human); assay: transfer cell ELISA, Raji cells; 31.25 ng/ml
[15] = molecular target: MHC class II molecules on MHC class II-expressing Raji cells (human); assay: transfer cell ELISA, Raji cells; 7.813 ng/ml
[16] = molecular target: MHC class II molecules on MHC class II-expressing Raji cells (human); assay: direct ELISA, plate-immobilised Raji cells; 3% gelatin, 2,500 cells; 250 ng/ml
[17] = molecular target: MHC class II molecules on MHC class II-expressing Raji cells (human); assay: direct ELISA, plate-immobilised Raji cells; 3% gelatin, 2,500 cells; 500 ng/ml
[18] = molecular target: MHC class II molecules on MHC class II-expressing Raji cells (human); assay: direct ELISA, plate-immobilised Raji cells; 3% gelatin, 5,000 cells; 125 ng/ml
[19] = molecular target: MHC class II molecules on MHC class II-expressing Raji cells (human); assay: direct ELISA, plate-immobilised Raji cells; 3% gelatin, 5,000 cells; 500 ng/ml
[20] = molecular target: MHC class II molecules on MHC class II-expressing Raji cells (human); assay: direct ELISA, plate-immobilised Raji cells; 0.5% Casein, 2,500 cells; 500 ng/ml
[21] = molecular target: MHC class II molecules on MHC class II-expressing Raji cells (human); assay: direct ELISA, plate-immobilised Raji cells; 3% gelatin, 2,500 cells; 1000 ng/ml
[22] = molecular target: MHC class II molecules on MHC class II-expressing Raji cells (human); assay: direct ELISA, plate-immobilised Raji cells; 3% gelatin, 5,000 cells; 62.5 ng/ml
[23] = molecular target: MHC class II molecules on MHC class II-expressing Raji cells (human); assay: direct ELISA, plate-immobilised Raji cells; 0.5% Casein, 10,000 cells; 125 ng/ml
[24] = molecular target: MHC class II molecules on MHC class II-expressing Raji cells (human); assay: direct ELISA, plate-immobilised Raji cells; 0.5% Casein, 2,500 cells; 62.5 ng/ml
[25] = molecular target: MHC class II molecules on MHC class II-expressing Raji cells (human); assay: direct ELISA, plate-immobilised Raji cells; 0.5% Casein, 5,000 cells; 1000 ng/ml
[26] = molecular target: MHC class II molecules on MHC class II-expressing Raji cells (human); assay: direct ELISA, plate-immobilised Raji cells; 3% gelatin, 10,000 cells; 1000 ng/ml
[27] = molecular target: MHC class II molecules on MHC class II-expressing Raji cells (human); assay: direct ELISA, plate-immobilised Raji cells; 0.5% Casein, 10,000 cells; 62.5 ng/ml
[28] = molecular target: MHC class II molecules on MHC class II-expressing Raji cells (human); assay: direct ELISA, plate-immobilised Raji cells; 3% gelatin, 10,000 cells; 31.25 ng/ml
[29] = molecular target: MHC class II molecules on MHC class II-expressing Raji cells (human); assay: direct ELISA, plate-immobilised Raji cells; 3% gelatin, 10,000 cells; 15.625 ng/ml
[30] = molecular target: MHC class II molecules on MHC class II-expressing Raji cells (human); assay: BLI; IMP321 sample diluted from reference standard to 75% binding potency, Raji cells in solution; relative to reference standard

OD (ELISA signal) [1]: 0.642 OD
OD (ELISA signal) [2]: 1.13 OD
OD (ELISA signal) [3]: 0.01 OD
OD (ELISA signal) [4]: 0.415 OD
OD (ELISA signal) [5]: 0.476 OD
OD (ELISA signal) [6]: 1.29 OD
OD (ELISA signal) [7]: 1.35 OD
OD (ELISA signal) [8]: 0.329 OD
OD (ELISA signal) [9]: 1.77 OD
OD (ELISA signal) [10]: 0.294 OD
Substance: IMP321 treated with Peptide-N-Glycosidase F (PNGase F) (Fc fusion)

OD (ELISA signal) [11]: 2.03 OD
OD (ELISA signal) [12]: 0.223 OD
OD (ELISA signal) [13]: 0.098 OD
OD (ELISA signal) [14]: 0.159 OD
OD (ELISA signal) [15]: 0.053 OD
OD (ELISA signal) [16]: 1.95 OD
OD (ELISA signal) [17]: 2.56 OD
OD (ELISA signal) [18]: 0.823 OD
OD (ELISA signal) [19]: 1.88 OD
OD (ELISA signal) [20]: 0.18 OD
OD (ELISA signal) [21]: 2.6 OD
OD (ELISA signal) [22]: 0.464 OD
OD (ELISA signal) [23]: 0.176 OD
OD (ELISA signal) [24]: 0.135 OD
OD (ELISA signal) [25]: 0.136 OD
OD (ELISA signal) [26]: 1.97 OD
OD (ELISA signal) [27]: 0.142 OD
OD (ELISA signal) [28]: 0.389 OD
OD (ELISA signal) [29]: 0.361 OD
Potency determined by BLI assay [30]: 80%
Substance: IMP321, recombinant soluble human LAG-3Ig fusion protein (Fc fusion)
